Reference: publication PMC5651008, “The Copper Homeostasis Transcription Factor CopR Is Involved in H2O2 Stress in Lactobacillus plantarum CAUH2”

Molecular target: T1, CopR (CopRHis6) (Lactobacillus plantarum CAUH2, UniProt F9UU50 1-142)
T1 sequence: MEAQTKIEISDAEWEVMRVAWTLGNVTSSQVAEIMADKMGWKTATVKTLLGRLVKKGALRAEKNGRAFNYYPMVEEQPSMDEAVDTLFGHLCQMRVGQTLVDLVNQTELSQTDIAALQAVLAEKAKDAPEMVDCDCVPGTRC
Experiment: EMSA; no Cu2+ added; 2.5 ug CopRHis6, 20 fmol probe; 20 uL: 1x LightShift binding buffer, 50 ng/uL poly(dI-dC), 2.5% glycerol, 0.05% NP-40, 5 mM MgCl2, 20 fmol probe, 2.5 ug CopRHis6; pH, salt and temperature not
Conditions: protein: recombinant; tags: C-terminal His6; chain copies: 2; label: 3' biotin; blunt

B1: copB promoter probe (EMSA copB-F/-R) (dsDNA)
DNA 1: GTGTTTTTCTTGACTTTTATCGTCTACAATTGTAAACTTTAGCCATAAATTACAGATGTAGACAAT
DNA 2: ATTGTCTACATCTGTAATTTATGGCTAAAGTTTACAATTGTAGACGATAAAAGTCAAGAAAAACAC
binding result: binds
